# Results taken from the nanobody polyreactivity screen of Harvey et al. (2022).
# Experiment: yeast display, Sf9 membrane polyspecificity reagent, FACS + sequencing; frameworks hold sequencing errors
# How it was run: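 Using colony PCR, genes from sorted yeast display clones were amplified, then sequenced on MiSeq at 2 × 250 and filtered by CDR length. The clones had been stained with 10% biotinylated, detergent-solubilized Sf9 membrane reagent for 1 hour at 4 °C and sorted by FACS into low and high (top ~1%) gates on anti-HA and streptavidin fluorescence. Polyreactivity labels come from the gate of origin.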
row,Sequence,polyreactivity (PSR sort gate)
1,QVQLVESGGGLVQAGGSLRLSCAGSGRTFEINAMGWYRQAPGKERELVAAITVSGGSTYYADSVKGRFTISRDNAKNTVYLQMNSLKPEDTAVYYCAVEIVYGQGKEVNSWGQGTQVTVSS,low polyreactivity
2,QVQLVESGGGLVQAGGSLRLSCAGSGRTFRTYTRGWYRQAPGKERELVAAISWSGSSTYYADSVKGRFTISRDNAKNTVYLQMNSLKPEDTAVYYCAARGLYDYGYWGQGTQVTVSS,high polyreactivity
3,QVQLVESGGGLVQAGGSLRLSCAGSGSIFHPYAMGWYRQAPGKERELVAAISKSGGNTYYADSVKGRFTISRDNAKNTVYLQMNSLKPEATAVYYCAALDYWGQGTQVTVSS,low polyreactivity
4,QVQLVESGGGLVQAGGSLRLSCAGSGSIFSNNAMGWYRQAPGKERELVAAISASGGSTYYADSVKGRFTISRDNAKNTVYLQMNSLKPEDTAVYYCAARGYGWGQGTQVTVSS,high polyreactivity
5,QVQLVESGGGLVQAGGSLRLSCAGSGSSFAWNDMGWYRHAPGIERALVAAISTSDGSTYYADSVKGRFTISRDNAKNTVYLQMNSLNPEDTAVYYCAADVTRVFYGLYTGEYDYWGLGTQVTVSS,low polyreactivity
6,QVQLVESGGGLVQAGGSLRLSCAGSGSTFKYYAMGWYRQAPGKARELVAAIRTSGGRTYYADSVKGRFTISRDNAKNTVYLPMNSLKPEDTAVYYCNASSTQFGQRYEYWGQGTQVTVSS,high polyreactivity
7,QVQLVESGGGLVQAGGSLRLSCAGSGSTFRYNAMGWYRQAPGKERELVAAISQRGGSTYYADSVKGRFTISRDNANNTVYLQMNSLKPEDTAVYYCPGDYWGQGTQVTVSS,high polyreactivity
8,QVQLVESGGGLVQAGGSLRLSCAGSGSTFYFYVMGWYRQAPGKDRELVAAITWSGGRTSYADSVKGRFTISRDNAKNTVYLQMNSLKPEDTAVYYCNTDGYPRLYIYDYWGQGTQVTVSS,low polyreactivity
9,QVQLVESGGGLVQAGGSLRLSCAGSGSTILYYVMGWYRQAPGKARELVAAITGTGGRTYYADSVKGRFTISRDNAKNTVYLQMNSLKPEDTAVYYCAADGKFEYDYWGQGTQVTVSS,low polyreactivity
10,QVQLVESGGGLVQAGGSLRLSCAHSGFIFSLYAMGWYIQAPGKERELVAAISRRGGNTYYADSVKGRFTISRDNGKNTVYLQMNSLKPVDTAVSYCNTGQRYGYDWGQGTQVTVSS,high polyreactivity
11,QVQLVESGGGLVQAGGSLRLSCAHSGSISSRYAMGWYRQAPGKERELVARITRSGGSTYYADSVKGRFTISRDNAKNTVYLQMNRLKPEDTAVYYCNKRGTEIGYDYWGQGTQVTVLS,low polyreactivity
12,QVQLVESGGGLVQAGGSLRLSCAPSGFIFYGYAMGWYRPAPGKERELVAAISRRGGSTYYADSVKGRFTISRDDAKNSVYLQMNSLKPEDTAVYYCAATYEVNYRKYGYWGQGTQVTVSS,high polyreactivity
13,QVQLVESGGGLVQAGGSLRLSCAPSGFTFGDYAMGWYRQSPGTESELDAAISWSGGSTYYADSVKGRFTISRDNAKTTVYLQMNSLKPEDTAVYYCAAVDSATIEDDYWGQGTQVTVSS,high polyreactivity
14,QVQLVESGGGLVQAGGSLRLSCAPSGFTFRYYGMGWYRQAPGKERELVAAITRTGGSTYYADSVKGRFTISRDNAKYTVYLQMNSLKPEDTAVYFCGAGGSYAYVYWGQGTQVTVSS,high polyreactivity
15,QVQLVESGGGLVQAGGSLRLSCAPSGFTFSQYAMGWYRQAPGKEREFVAAISRSGGSTYYADSVKGRFTISRDNAKNTVYLQMNSLKPEDTAVYYCAAGLVATFSRRGRASYRYNYWGHGTQVTVSS,high polyreactivity
16,QVQLVESGGGLVQAGGSLRLSCAPSGFTFTYYAMGWYRQAPGQERELVAAITQSGGSTFYADSVQGRFTISRDNAKNTVYLQMNSLKPEDTAVYYCAADIDLYYDYDYWGQGTQVTVSS,low polyreactivity
17,QVQLVESGGGLVQAGGSLRLSCAPSGGIYLYYVMGWYRQAPGKERELVADISGDDSTNYADSVKGRFTISRDNAKNTVYLQMNSLKPEDTAVYYCAAVPGLFYLPYEYWGQGTQVTVSS,low polyreactivity
18,QVQLVESGGGLVQAGGSLRLSCAPSGGTFTHNAMGWYRQAPGKEWELVAAISRSGGSTSYADSVKGRFTISRYNAMNTVYLQMNSLKPEDTAVYYCAALISRQRSYSRDYWGQGTQVTVSS,high polyreactivity
